# Biological target: the molecule itself
# Test: native gel or EMSA
protein,measurement,value
"NEUROG3^S183A (natural protein, human, UniProt Q9Y4Z2 1-214, looked up) MTPQPSGAPTVQVTRETERSFPRASEDEVTCPTSAPPSPTRTRGNCAEAEEGGCRGAPRKLRARRGGRSRPKSELALSKQRRSRRKKANDRERNRMHNLNSALDALRGVLPTFPDDAKLTKIETLRFAHNYIWALTQTLRIADHSLYALEPPAPHCGELGSPGGSPGDWGSLYSPVSQAGSLAPAASLEERPGLLGATFSACLSPGSLAFSDFL",binding result,binds
